Laboratory results from patent publication US20200071424A1 (SHIONOGI, published 2020).

T1: human [1-305]-mouse chimeric EL (human; mouse, UniProt Q9WVG5 306-500)
T1 sequence: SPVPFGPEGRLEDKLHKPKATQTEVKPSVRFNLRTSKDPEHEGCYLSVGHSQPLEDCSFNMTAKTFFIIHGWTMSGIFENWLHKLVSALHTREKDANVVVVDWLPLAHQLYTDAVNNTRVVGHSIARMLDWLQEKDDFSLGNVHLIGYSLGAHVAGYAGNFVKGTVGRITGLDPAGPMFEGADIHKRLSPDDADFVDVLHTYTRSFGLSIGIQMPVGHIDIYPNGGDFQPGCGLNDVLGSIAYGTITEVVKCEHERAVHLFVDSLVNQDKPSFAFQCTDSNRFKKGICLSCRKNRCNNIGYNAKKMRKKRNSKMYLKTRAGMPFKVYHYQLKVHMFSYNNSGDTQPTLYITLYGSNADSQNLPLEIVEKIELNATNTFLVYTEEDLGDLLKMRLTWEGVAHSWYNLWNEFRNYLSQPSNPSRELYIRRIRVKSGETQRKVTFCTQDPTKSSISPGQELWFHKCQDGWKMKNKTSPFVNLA

B1: h13B3-S2 (antibody, V domains shown)
VH: QVQLVQSGAEVKKPGASVKVSCKASGYTFTEYTMHWVRQAPGQGLEWMGSINPYYGGTSYNEKFKDRVTSTRDTSISTAYMELSRLRSDDTVVYYCARYGNYVGYFDYWGQGTTVTVSS
VL: EIVLTQSPGTLSLSPGERATLSCRASSSVHYMYWYQQKPGQAPRLLIYYTSNLAPGIPDRFSGSGSGTDFTLTISRLEPEDFAVYYCQQFTSSPYTFGGGTKVEIK
B2: h13B3-S4 (antibody, V domains shown)
VH: QVQLVQSGAEVKKPGASVKVSCKASGYTFTEYTMHWVRQAPGQGLEWMGSINPYYGGTSYNEKFKDRVTSTRDTSISTAYMELSRLRSDDTVVYYCARYGNYVGYFDYWGQGTTVTVSS
VL: EIVLTQSPATLSLSPGERATLSCRASSSVHYMYWYQQKPGQAPRLLIYYTSNLAPGIPARFSGSGSGTDFTLTISSLEPEDFAVYYCQQFTSSPYTFGGGTKVEIK
B3: h13B3-S3 (antibody, V domains shown)
VH: QVQLVQSGAEVKKPGASVKVSCKASGYTFTEYTMHWVRQAPGQGLEWMGSINPYYGGTSYNEKFKDRVTMTRDTSTSTVYMELSSLRSEDTAVYYCARYGNYVGYFDYWGQGTTVTVSS
VL: EIVLTQSPATLSLSPGERATLSCRASSSVHYMYWYQQKPGQAPRLLIYYTSNLAPGIPARFSGSGSGTDFTLTISSLEPEDFAVYYCQQFTSSPYTFGGGTKVEIK
B4: h23H8-S3 (antibody, V domains shown)
VH: QVQLVQSGAEVKKPGASVKVSCKASGYTFTDNTIHWVRQAPGQGLEWMGHINPYYGGTNNNEKFKDRVTMTRDTSISTAYMELSRLRSDDTAVYYCARKGIYYSSPFDYWGQGTTVTVSS
VL: DIQMTQSPSSLSASVGDRVTITCRASQDINNYLNWYQQKPGKAPKLLISYTSKLHSGVPSRFSGSGSGTDFTLTISSLQPEDFATYYCQQGNTLPFTFGQGTKLEIK
B5: h16B3-S1 (antibody, V domains shown)
VH: EVQLVESGGGLVQPGGSLRLSCAASGFTFSGYTMSWVRQAPGKGLEWVSEISFARDRAFYPDTVKGRFTISRDNSKNTLYLQMNSLRAEDTAVYYCAKLGGRNHDYWYFDVWGQGTTVTVSS
VL: DIVMTQSPDSLAVSLGERATINCRASESVEYYGTSLMQWYQQKPGQPPKLLIYAASNVESGVPDRFSGSGSGTDFTLTISSLQAEDVAVYYCQQSWKVPFTFGQGTKLEIK
B6: h53A11-S2 (antibody, V domains shown)
VH: QVQLVQSGAEVKKPGASVKVSCKASGYTFTDYTMHWVRQAPGQRLEWMGGINPYYGGTTYNEKFKDRVTITRDTSASTAYMELSSLRSEDTAVYYCAKGDYYGGSYNYWGQGTTVTVSS
VL: EIVMTQSLATLSVSPGERATLSCRASQDISNSLHWYQQKPGQAPRLLIYYASQSISGIPARFSGSGSGTEFTLTISSLQSEDFAVYYCQQSNSWPYTFGQGTKLEIK
B7: h53A11-S3 (antibody, V domains shown)
VH: QVQLVQSGAEVKKPGASVKVSCKASGYTFTDYTMHWVRQAPGQRLEWMGGINPYYGGTTYNEKFKDRVTITRDTSASTAYMELSSLRSEDTAVYYCAKGDYYGGSYNYWGQGTTVTVSS
VL: EIVMTQSPATLSVSPGERATLSCRASQDISNSLHWYQQKPGQAPRLLIKYASQSISGIPARFSGSGSGTEFTLTISSLQSEDFAVYYCQQSNSWPYTFGQGTKLEIK

Biological target: T1, human [1-305]-mouse chimeric EL
Assay: cell-based or functional assay

Binder | Neutralizing activity IC50 [nM]
B1 | 9
B2 | 2.6
B3 | 2.1
B4 | 2
B5 | 2.7
B6 | 2.7
B7 | 1.8
